Assays:
[1] = target: T1 with SpyTag, flanked by six residue glycine-serine linkers, inserted on the lumenal side (Haliangium ochraceum | not stated); assay: fluorescence intensity of purified shells; number of cfp cargo proteins per shell calculated from fluorescence intensity values of shells loaded in vivo and purified by CAP and anion exchange
[2] = target: T1 with SpyCatcher, flanked by six residue glycine-serine linkers, inserted on the lumenal side (Haliangium ochraceum | not stated); assay: as above

Substance	cfp cargo copies per shell (copies per shell) [1]	cfp cargo copies per shell (copies per shell) [2]
SpyCatcher-mTurquoise2-6xHis (SpyCatcher-fused cyan fluorescent protein cargo)	58	
SpyTag-mTurquoise2-6xHis (SpyTagged cyan fluorescent protein cargo)		73

Reference: article PMC6056538
